Measured values from patent publication US20120134979A1, “METHODS AND COMPOSITIONS FOR THE TREATMENT OF SICKLE CELL DISEASE” (priority 2010, published 2012).

Tests used:
SCD Tg mice [1] = assay: Plasma adenosine levels in SCD Tg mice under weekly PEG-ADA; assay type: in vivo, mouse; details: weekly injection 2.5 U/week for 8 weeks
Description: Adenosine Analysis. […] B., et al. Effects of (R)-deoxycoformycin (pentostatin) on intrauterine nucleoside catabolism and embryo viability in the pregnant mouse. Teratology 45, 91-103, 1992) with modifications. In brief, 500 μl of 0.6 M cold perchloric acid was added to 500 μl blood on ice, mixed using a vertex mixer and subsequently subject to sonication for 10 seconds with output 6 (W-220F, Heat Systems-Ultrasonic, Inc.). The homogenate was centrifuged at 20,000 g for 10 min at […]. The supernatant (568 μl) was transferred to a new tube and neutralized with 40.9 μl 3 M KHCO3/3.6 N KOH. Phenol red (2 μl of 0.2 mg/ml) was added as indicator. The sample was acidified with 5.7 μl of 1.8 M ammonium dihydrogen phosphate (pH 5.1) and 13.2 μl phosphoric acid (30%). Finally, the sample was centrifuged at 20,000 g for 5 min and the supernatant was transferred to a new tube and stored at −20° C. Before HPLC assay, the sample was thawed on ice, then centrifuged at 20,000 g for 10 minutes. […]

SCD Tg mice [2] = assay: Hypoxia/reoxygenation-induced acute sickle crisis in SCD Tg mice with PEG-ADA pretreatment; assay type: in vivo, mouse
Description: Adenosine Analysis. The adenosine concentration present in whole blood was measured by HPLC as previously described (Knudsen, T. B., et al. Effects of (R)-deoxycoformycin (pentostatin) on intrauterine nucleoside catabolism and embryo viability in the pregnant mouse. Teratology 45, 91-103, 1992) with modifications. In brief, 500 μl of 0.6 M cold perchloric acid was added to 500 μl blood on ice, mixed using a vertex mixer and subsequently subject to sonication for 10 seconds with output 6 (W-220F, Heat Systems-Ultrasonic, Inc.). The homogenate was centrifuged at 20,000 g for 10 min at […]. The supernatant (568 μl) was transferred to a new tube and neutralized with 40.9 μl 3 M KHCO3/3.6 N KOH. Phenol red (2 μl of 0.2 mg/ml) was added as indicator. The sample was acidified with 5.7 μl of 1.8 M ammonium dihydrogen phosphate (pH 5.1) and 13.2 μl phosphoric acid (30%). Finally, the sample was centrifuged at 20,000 g for 5 min and the supernatant was transferred to a new tube and stored at −20° C. Before HPLC assay, the sample was thawed on ice, then centrifuged at 20,000 g for 10 minutes. The supernatant was transferred to a new tube for HPLC analysis as described previously (Aldrich, et al. Adenosine deaminase-deficient mice: models for the study of lymphocyte development and adenosine signaling. Adv Exp Med. Biol. 2000; 486, 57-63; Blackburn, et al. Metabolic and immunologic consequences of limited adenosine deaminase expression in mice. The Journal of Biological Chemistry. 1996; 271(25):15203-15210). Plasma adenosine measurements were performed as with whole blood, except the sonication step was omitted. Adenosine content was normalized to volume.
Hypoxia/reoxygenation of SCD Tg mice. SCD Tg mice were subjected to two-hour hypoxic condition with 8% oxygen. After hypoxia, mice were returned to normoxic conditions for four hours Wallace, et al. NKT cells mediate pulmonary inflammation and dysfunction in murine sickle cell disease through production of IFN-gamma and CXCR3 chemokines. Blood. 2009; 114(3):667-676). At the end of the experiments, mice were sacrificed and blood collected for adenosine measurement, sickling and hemolytic analysis.
Morphological study of erythrocytes and quantification of reticulocytes by flow cytometry. Blood smears were stained using the WG16-500 ml kit (Sigma-Aldrich) for sickled cells and observed using 100× oil immersion objective of Olympus BX60 microscope. […] The percentages of sickled cells among the counted cells were calculated. Reticulocyte was labeled by Retic-COUNT Reagent (Becton Dickinson) and quantified by flow cytometry (Perumbeti, et al., A novel human gamma-globin gene vector for genetic correction of sickle cell anemia in a humanized sickle mouse model: critical determinants for successful correction. Blood. 2009; 114(6):1174-1185).
2,3-DPG analysis. 2,3-DPG concentration in RBCs was detected by a commercially available kit (Roche, Nutley, N.J., and as described in Ericson A, de Verdier C H. A modified method for the determination of 2,3-diphosphoglycerate in erythrocytes. Scandinavian journal of clinical and laboratory investigation. 1972; 29(1):84-90).
Hemolytic analysis. The hemoglobin, haptoglobin and total bilirubin in mouse plasma were quantified by ELISA kits following instructions provided by the vendor (BioAssay Systems, Hayword, Calif.).

[3] = SCD Tg mice, 2 h hypoxia/4 h reoxygenation, PEG-ADA pretreatment
[4] = SCD Tg mice, hypoxic/reoxygenation condition

B1: PEG-ADA: polyethylene glycol-modified adenosine deaminase, a drug used to lower adenosine concentrations in ADA-deficient humans (protein, UniProt P56658 2-363, looked up)
Adenosine deaminase: AQTPAFNKPKVELHVHLDGAIKPETILYYGRKRGIALPADTPEELQNIIGMDKPLSLPEFLAKFDYYMPAIAGCREAVKRIAYEFVEMKAKDGVVYVEVRYSPHLLANSKVEPIPWNQAEGDLTPDEVVSLVNQGLQEGERDFGVKVRSILCCMRHQPSWSSEVVELCKKYREQTVVAIDLAGDETIEGSSLFPGHVKAYAEAVKSGVHRTVHAGEVGSANVVKEAVDTLKTERLGHGYHTLEDATLYNRLRQENMHFEVCPWSSYLTGAWKPDTEHPVVRFKNDQVNYSLNTDDPLIFKSTLDTDYQMTKNEMGFTEEEFKRLNINAAKSSFLPEDEKKELLDLLYKAYGMPSPASAEQCL
modifications: PEGylated
For B1, the “Adenosine levels in the plasma at different time points” value (SCD Tg mice [1]) was “lowered adenosine to a steady level within two weeks”, the “2,3-DPG elevation by hypoxia/reoxygenation” value (SCD Tg mice [2]; SCD Tg mice RBCs, PEG-ADA pretreatment) was “significantly inhibited its elevation” and the plasma adenosine levels (SCD Tg mice [2]; [3]) was “significantly lowered”. The plasma hemoglobin (SCD Tg mice [2]; [3]) was “decreased”, the plasma total bilirubin (SCD Tg mice [2]; [3]) was “decreased” and the sickling (SCD Tg mice [2]; [3]) was “reduced”. The HCT (SCD Tg mice [2]; [4]) was 21.25 ± 2.52 %, the Hb (SCD Tg mice [2]; [4]) was 4.58 ± 0.38 g/dL and the MCH (SCD Tg mice [2]; [4]) was 9.12 ± 0.72 pg. The MCHC (SCD Tg mice [2]; [4]) was 18.65 ± 1.82 g/dL, the MCV (SCD Tg mice [2]; [4]) was 48.93 ± 2.05 fL and the RBC (SCD Tg mice [2]; [4]) was 4.94 ± 0.17 M/μl. It also gave an RDW (SCD Tg mice [2]; [4]) of 29.72 ± 1.95 % and a WBC (SCD Tg mice [2]; [4]) of 18.68 ± 3.32 k/μl.
